Experimental findings from article PMC4731217, “Mutations in Mtr4 Structural Domains Reveal Their Important Role in Regulating tRNAiMet Turnover in Saccharomyces cerevisiae and Mtr4p Enzymatic Activities In Vitro” are described below.

Some results are limits rather than exact numbers.

For one data set, the target named is T1, Mtr4p-K700N (Saccharomyces cerevisiae, UniProt P47047 1-1073, K700N).
T1 sequence: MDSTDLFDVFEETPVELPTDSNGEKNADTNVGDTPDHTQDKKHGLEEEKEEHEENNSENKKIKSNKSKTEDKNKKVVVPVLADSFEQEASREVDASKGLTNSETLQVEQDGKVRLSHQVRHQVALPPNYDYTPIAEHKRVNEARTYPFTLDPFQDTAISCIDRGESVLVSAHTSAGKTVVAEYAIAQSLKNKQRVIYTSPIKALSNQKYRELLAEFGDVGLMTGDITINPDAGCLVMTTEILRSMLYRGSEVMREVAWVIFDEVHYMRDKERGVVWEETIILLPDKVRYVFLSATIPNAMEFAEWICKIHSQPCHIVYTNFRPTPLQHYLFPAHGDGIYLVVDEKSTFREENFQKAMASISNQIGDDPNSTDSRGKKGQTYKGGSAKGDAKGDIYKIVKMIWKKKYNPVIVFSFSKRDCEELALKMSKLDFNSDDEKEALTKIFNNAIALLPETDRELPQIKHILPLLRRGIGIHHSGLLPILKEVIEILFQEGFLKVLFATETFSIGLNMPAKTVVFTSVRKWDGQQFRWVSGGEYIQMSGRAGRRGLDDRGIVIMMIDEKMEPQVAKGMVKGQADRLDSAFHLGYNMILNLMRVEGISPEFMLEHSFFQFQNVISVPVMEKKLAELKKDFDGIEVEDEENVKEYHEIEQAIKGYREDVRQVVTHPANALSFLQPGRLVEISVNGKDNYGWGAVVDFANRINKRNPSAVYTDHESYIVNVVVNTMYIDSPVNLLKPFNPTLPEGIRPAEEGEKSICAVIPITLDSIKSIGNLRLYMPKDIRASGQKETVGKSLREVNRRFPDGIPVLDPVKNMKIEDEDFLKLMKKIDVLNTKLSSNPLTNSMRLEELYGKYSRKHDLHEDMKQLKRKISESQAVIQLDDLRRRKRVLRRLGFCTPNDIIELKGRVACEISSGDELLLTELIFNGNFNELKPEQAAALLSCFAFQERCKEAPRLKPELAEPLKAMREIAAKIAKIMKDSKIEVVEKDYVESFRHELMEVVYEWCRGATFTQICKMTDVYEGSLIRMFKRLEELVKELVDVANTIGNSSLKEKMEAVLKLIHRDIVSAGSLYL
Nature of the data set: EMSA; no ATP or Mg2+ listed; 1 mM EDTA; EMSA: 0.5 nM RNA, 10 mM Tris pH 7.5, 1 mM EDTA, 100 mM KCl, 0.1 mM DTT, 5% glycerol, 1% NP40, on ice 30 min; 5% native PAGE at 4 C. The conditions noted are these: protein: recombinant; tags: His (His60 Ni purification); label: 5' 32P on R4 (top strand); 16 bp duplex, 3' overhang 6 nt on R1. (In EMSA bound probe runs differently from free probe, usually more slowly.)

Another data set has as its target T2, Mtr4p-P731S (Saccharomyces cerevisiae, UniProt P47047 1-1073, P731S).
T2 sequence: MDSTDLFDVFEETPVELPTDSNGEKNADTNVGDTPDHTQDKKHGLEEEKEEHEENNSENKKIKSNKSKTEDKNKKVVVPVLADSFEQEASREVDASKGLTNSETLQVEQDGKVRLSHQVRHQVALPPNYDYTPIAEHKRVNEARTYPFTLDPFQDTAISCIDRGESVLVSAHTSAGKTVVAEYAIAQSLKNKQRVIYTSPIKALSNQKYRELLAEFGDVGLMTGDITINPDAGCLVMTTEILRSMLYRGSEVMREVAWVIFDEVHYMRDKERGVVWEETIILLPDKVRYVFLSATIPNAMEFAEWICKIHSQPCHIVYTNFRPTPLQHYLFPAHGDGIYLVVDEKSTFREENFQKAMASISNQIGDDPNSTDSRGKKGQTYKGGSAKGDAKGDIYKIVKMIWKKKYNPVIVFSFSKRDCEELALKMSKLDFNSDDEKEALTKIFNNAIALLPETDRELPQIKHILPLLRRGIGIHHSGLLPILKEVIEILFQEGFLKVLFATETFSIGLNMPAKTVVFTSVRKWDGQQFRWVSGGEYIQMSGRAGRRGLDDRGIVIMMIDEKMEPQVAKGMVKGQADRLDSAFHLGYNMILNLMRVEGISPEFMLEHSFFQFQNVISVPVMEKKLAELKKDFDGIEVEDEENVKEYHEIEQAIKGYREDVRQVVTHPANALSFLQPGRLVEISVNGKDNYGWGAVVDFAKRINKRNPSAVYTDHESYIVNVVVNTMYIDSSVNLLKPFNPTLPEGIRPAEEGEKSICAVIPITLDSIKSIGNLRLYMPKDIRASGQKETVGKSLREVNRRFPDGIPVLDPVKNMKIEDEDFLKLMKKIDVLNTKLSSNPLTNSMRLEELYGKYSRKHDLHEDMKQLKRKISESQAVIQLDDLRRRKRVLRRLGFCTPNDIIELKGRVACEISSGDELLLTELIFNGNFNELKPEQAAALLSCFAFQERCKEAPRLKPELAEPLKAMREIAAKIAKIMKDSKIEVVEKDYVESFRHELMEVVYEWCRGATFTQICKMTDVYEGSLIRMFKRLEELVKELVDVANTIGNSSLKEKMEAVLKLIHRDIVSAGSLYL
The description is as above. As to conditions: protein: recombinant; tags: His (His60 Ni purification); label: 5' 32P on R4 (top strand); 16 bp duplex, 3' overhang 6 nt on R1.

B1: R1-4 RNA duplex (R4 top / R1 bottom) (dsRNA)
RNA 1: AGCACCGUAAAGACGC
RNA 2: GCGUCUUUACGGUGCUAGCUUA
With B1, the results for the binding signal in the data set with Mtr4p-K700N and in the data set with Mtr4p-P731S were < 50 % of wild-type complex and ~50 % of wild-type complex, respectively.
